Source: patent US20140072613A1 (published 2014)

T1: PrKX(h) (human, UniProt P51817 1-358)
T1 sequence (looked up): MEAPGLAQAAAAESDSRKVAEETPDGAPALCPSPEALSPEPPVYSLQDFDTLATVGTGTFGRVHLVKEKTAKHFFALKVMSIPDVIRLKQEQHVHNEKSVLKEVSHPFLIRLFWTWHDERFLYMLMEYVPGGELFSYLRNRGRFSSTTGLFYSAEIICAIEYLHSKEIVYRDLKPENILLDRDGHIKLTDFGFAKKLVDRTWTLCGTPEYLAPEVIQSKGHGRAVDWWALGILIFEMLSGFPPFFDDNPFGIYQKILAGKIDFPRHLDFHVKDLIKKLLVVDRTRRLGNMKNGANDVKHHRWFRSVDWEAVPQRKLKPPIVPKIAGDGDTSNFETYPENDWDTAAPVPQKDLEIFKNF

T2: Haspin(h) (human, UniProt Q8TF76 471-798, limits assumed)
T2 sequence (looked up): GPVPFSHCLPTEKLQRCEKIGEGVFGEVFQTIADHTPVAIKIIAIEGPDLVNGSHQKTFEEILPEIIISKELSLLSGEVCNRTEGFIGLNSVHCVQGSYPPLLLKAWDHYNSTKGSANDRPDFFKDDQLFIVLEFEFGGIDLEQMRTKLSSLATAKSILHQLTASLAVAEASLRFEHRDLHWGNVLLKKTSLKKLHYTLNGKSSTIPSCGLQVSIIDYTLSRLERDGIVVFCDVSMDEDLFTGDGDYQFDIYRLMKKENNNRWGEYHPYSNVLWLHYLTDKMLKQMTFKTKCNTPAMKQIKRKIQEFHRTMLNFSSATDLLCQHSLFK

T3: EphA4(h) (human, UniProt P54764 570-986, limits assumed)
T3 sequence (looked up): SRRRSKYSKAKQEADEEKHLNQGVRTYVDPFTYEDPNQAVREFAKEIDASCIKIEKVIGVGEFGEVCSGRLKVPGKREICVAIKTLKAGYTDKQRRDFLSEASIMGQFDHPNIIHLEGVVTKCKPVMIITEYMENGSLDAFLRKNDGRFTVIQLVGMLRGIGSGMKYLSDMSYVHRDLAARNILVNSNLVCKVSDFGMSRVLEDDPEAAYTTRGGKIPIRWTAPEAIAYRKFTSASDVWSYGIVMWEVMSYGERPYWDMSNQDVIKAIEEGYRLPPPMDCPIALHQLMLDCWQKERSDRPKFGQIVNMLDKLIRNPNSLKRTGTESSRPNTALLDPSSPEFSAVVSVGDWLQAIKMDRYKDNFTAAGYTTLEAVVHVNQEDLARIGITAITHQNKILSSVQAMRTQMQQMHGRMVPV

T4: Rse(h) (human, UniProt Q06418 451-890, limits assumed)
T4 sequence (looked up): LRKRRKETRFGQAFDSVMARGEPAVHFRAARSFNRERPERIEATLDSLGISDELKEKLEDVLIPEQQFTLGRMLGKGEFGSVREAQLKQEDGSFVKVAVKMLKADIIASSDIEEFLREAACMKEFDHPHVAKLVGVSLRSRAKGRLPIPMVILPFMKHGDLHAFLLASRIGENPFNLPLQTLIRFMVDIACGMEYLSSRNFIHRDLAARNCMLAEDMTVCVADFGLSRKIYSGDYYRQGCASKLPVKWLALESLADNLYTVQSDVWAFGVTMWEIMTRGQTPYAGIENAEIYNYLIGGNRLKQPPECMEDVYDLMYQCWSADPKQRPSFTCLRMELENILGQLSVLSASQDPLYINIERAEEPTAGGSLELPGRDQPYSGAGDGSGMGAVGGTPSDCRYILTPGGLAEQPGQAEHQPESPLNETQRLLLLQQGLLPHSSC


How the values were obtained:
Assay in all cases: cell-based or functional assay
[1] = target: CDK9/cyclin T1(h) (human, UniProt P50750 1-372; O60563 1-726, limits assumed)
[2] = target: T1, PrKX(h)
[3] = target: CDK5/p35(h) (human, UniProt Q00535 1-292; Q15078 1-307)
[4] = target: T2, Haspin(h)
[5] = target: Abl(Q252H)(h) (human, UniProt P00519 27-1130, limits assumed)
[6] = target: PKGδ(h) (human)
[7] = target: EGFR(T790M)(h) (human, UniProt P00533 696-1210, limits assumed)
[8] = target: T3, EphA4(h)
[9] = target: JNK2α2(h) (human, UniProt P45984 1-424)
[10] = target: Tie2(Y897S)(h) (human, UniProt Q02763 771-1124, limits assumed)
[11] = target: MST3(h) (human, UniProt Q9Y6E0 1-443, limits assumed)
[12] = target: FGFR1(V561M)(h) (human, UniProt P11362 456-765, limits assumed)
[13] = target: Rsk1(h) (human, UniProt Q15418 1-735)
[14] = target: IGF-1R(h) (human, UniProt P08069 959-1367, limits assumed)
[15] = target: T4, Rse(h)
[16] = target: DAPK1(h) (human, UniProt P53355 1-363, limits assumed)
[17] = target: MARK1(h) (human, UniProt Q9P0L2 1-795, limits assumed)
[18] = target: GSK3α(h) (human, UniProt P49840 1-483)
[19] = target: SRPK1(h) (human, UniProt Q96SB4 1-655)
[20] = target: mTOR(h) (human, UniProt P42345 1362-2549)

Row | Binder | % activity, 100 µM [1] [%] | % activity, 100 µM [2] [%] | % activity, 100 µM [3] [%] | % activity, 100 µM [4] [%] | % activity, 100 µM [5] [%] | % activity, 100 µM [6] [%] | % activity, 100 µM [7] [%] | % activity, 100 µM [8] [%] | % activity, 100 µM [9] [%] | % activity, 100 µM [10] [%] | % activity, 100 µM [11] [%] | % activity, 100 µM [12] [%] | % activity, 100 µM [13] [%] | % activity, 100 µM [14] [%] | % activity, 100 µM [15] [%] | % activity, 100 µM [16] [%] | % activity, 100 µM [17] [%] | % activity, 100 µM [18] [%] | % activity, 100 µM [19] [%] | % activity, 100 µM [20] [%]
1 | KAFAKLAARLYRKALARQLGVAA [MMI-0400] | 235 | 76 | 76 | 36 | 98 | 90 | 106 | 65 | 96 | 87 | 36 | 74 | 54 | 90 | 89 | 36 | 120 | 164 | 96 | 93
2 | FAKLAARLYRKALARQLGVAA [MMI-0300] | 91 | 61 | 79 | 48 | 82 | 101 | 100 | 88 | 98 | 83 | 45 | 74 | 46 | 119 | 88 | 46 | 132 | 157 | 90 | 91
